Measurements reported in paper doi:10.1101/2024.12.06.626481 (bioRxiv, 2024).

Target: murine IL-21 (mIL-21) (murine, UniProt Q9ES17 18-146)
Assay: BLI

B1: biotinylated murine IL-21 receptor (mIL-21R) (receptor)
chain: not shown
modifications: biotinylated (site not stated)
Does B1 bind?
Result: binds
